Measured values taken from article PMC4815241 (Protein Science : A Publication of the Protein Society, 2015).
pKd: −log10 of the molar value.

Legend:
[1] = target: eIF4GII_(551–745)/eIF4E complex (human | murine) (UniProt O43432); experiment: ITC
[2] = target: eIF4GII_(551–745)/eIF4E complex (human | murine) (UniProt O43432); experiment: SEC-MALS

Sequence of eIF4GII_(551–745)/eIF4E complex (human | murine) (O43432 551-745, chain 1 of 2): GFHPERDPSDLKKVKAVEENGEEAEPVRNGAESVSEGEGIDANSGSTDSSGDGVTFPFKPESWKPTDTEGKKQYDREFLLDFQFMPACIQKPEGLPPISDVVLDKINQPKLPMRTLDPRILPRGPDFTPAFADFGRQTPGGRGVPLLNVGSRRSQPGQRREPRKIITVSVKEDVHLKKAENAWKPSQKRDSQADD
Sequence of eIF4GII_(551–745)/eIF4E complex (human | murine) (P63073 whole entry, chain 2 of 2, further chain): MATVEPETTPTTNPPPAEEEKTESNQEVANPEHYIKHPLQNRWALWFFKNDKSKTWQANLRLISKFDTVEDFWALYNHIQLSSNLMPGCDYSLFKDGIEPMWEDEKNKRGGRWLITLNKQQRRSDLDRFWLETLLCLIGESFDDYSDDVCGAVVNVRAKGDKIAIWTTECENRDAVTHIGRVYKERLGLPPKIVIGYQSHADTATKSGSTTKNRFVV

FMDV leader proteinase, shortened form, sLb^proC51A (FMDV residues 29–195) (enzyme)
pKd [1]: 7.48 | stoichiometry N [2]: 1
